B1: chicken erythrocyte histone H5 (natural protein)
chain: MTESLVLSPAPAKPKRVKASRRSASHPTYSEMIAAAIRAEKSRGGSSRQSIQKYIKSHYKVGHNADLQIKLSIRRLLAAGVLKQTKGVGASGSFRLAKSDKAKRSPGKKKKAVRRSTSPKKAARPRKARSPAKKPKATARKARKKSRASPKKAKKPKTVKAKSRKASKAKKVKRSKPRAKSGARKSPKKK

biological target: H1- and H5-depleted chicken erythrocyte chromatin (DNA-core histone complex) (chicken (endogenous in erythrocytes)); assay: co-sedimentation

Question: “chicken erythrocyte histone H1 (from UniProt P09987 1-218) (natural protein)” was tested. Which stoichiometry N (linker histone molecules per nucleosome) did it give?
Answer: 2

Question: For “calf thymus histone H1 (from UniProt P02253 1-213) (natural protein)”, which stoichiometry N (linker histone molecules per nucleosome) is on record?
Answer: 2

Question: For B1, which stoichiometry N (linker histone molecules per nucleosome) is on record?
Answer: 2

— article PMC2111872
